Key:
[1] = target: UL25 of HSV-2 (component of the capsid-vertex-specific component, CVSC) (herpes simplex virus 2 strain MS) (UniProt P89448); test: cryo-EM structure; HSV-2 (MS strain) C-capsids assembled in infected Vero cells, detergent-treated (1% NP-40) and purified on sucrose gradients, in PBS; icosahedral plus block-based reconstruction, 3.75 Å overall (CVSC map 4.3 Å, CVSC head about 10 Å)
[2] = target: small capsid protein VP26 of HSV-2 (herpes simplex virus 2 strain MS) (UniProt P89458); test: as above

Row | Substance | stoichiometry N [1] | stoichiometry N [2]
1 | UL25 of HSV-2 (component of the capsid-vertex-specific component, CVSC) (from UniProt P89448 1-585) (natural protein) | 2 | –
2 | small capsid protein VP26 of HSV-2 (from UniProt P89458 1-112) (natural protein) | – | 6
